Laboratory results as given in patent US12077763B2, “RNA-based control of powdery mildew” (Greenlight Biosciences, Inc., priority 2021, dated 2024).

B1: GS3466 (nucleic acid)
sense: CACGAAUACGUGUAAUUCCUUCUCUCAUGAUACUUUCUCGUUUCUCACAUUGCUUUUUGAAUUUAGAAAAUGCUAGCGUUUCUAAAUCUUUUUGUUGAGCUUUUAAAUCGUUGAUCAUGGCCAUUUGCUCGUCAAUUUUUACUAAAAAGUCCUUGACAUGCCUAUUUACAUUGAAUACGUUUCUGGUAACCUUGGUUUGAAUAUUUUUUGCUCGAUUUGCAUAACGCAAUGUAUUCUGAGUCUCAUCAAAAUGUGCACUAGACGGACUUACGCAAACAAUCAUUACGGUCUUGCAAUUGCCACCGAGAGAAAACUUUAGCAGUCGAGUUAACUUUGAAUUCCGAUAUGGAACGUGGUUUUUUUUUCGGGGAUCACAAA
antisense: UUUGUGAUCCCCGAAAAAAAAACCACGUUCCAUAUCGGAAUUCAAAGUUAACUCGACUGCUAAAGUUUUCUCUCGGUGGCAAUUGCAAGACCGUAAUGAUUGUUUGCGUAAGUCCGUCUAGUGCACAUUUUGAUGAGACUCAGAAUACAUUGCGUUAUGCAAAUCGAGCAAAAAAUAUUCAAACCAAGGUUACCAGAAACGUAUUCAAUGUAAAUAGGCAUGUCAAGGACUUUUUAGUAAAAAUUGACGAGCAAAUGGCCAUGAUCAACGAUUUAAAAGCUCAACAAAAAGAUUUAGAAACGCUAGCAUUUUCUAAAUUCAAAAAGCAAUGUGAGAAACGAGAAAGUAUCAUGAGAGAAGGAAUUACACGUAUUCGUG
B2: GS3478 (nucleic acid)
sense: ACCGUCCUGAAAGUAAAGGUGAAAAGAAAGAGCGUCUUCUCAAGGAAGCUACAGCUAUUAAAAAUGGCAACAAGGAGGAUGUCAGUAAGAAGCCAUACACAGUAAAGUAUGGACUCAAUCAUGUCGUUGGUUUGGUUGAGAAUAAGAAAGCUUCUCUAGUCUUAAUACCCAAUGAUGUCGAUCCUAUAGAGUUGGUUAUAUUUCUUCCAGCUCUUUGUCGAAAGAUGGGAGUUCCUUAUGCUAUCAUUAAAGGAAAAGCUAGACUUGGUACUGUUGUACACAAGAAAACUGCUGCUGUAUUGGCAAUAACUGAAGUUCGAUCCGAAGAUAAAUCAGAGCUAUCAAAAUUAAUCCAAGCUAUUAAAGAAGGCUACUCUGAGAAAUAUGAAGAAGCUAAG
antisense: CUUAGCUUCUUCAUAUUUCUCAGAGUAGCCUUCUUUAAUAGCUUGGAUUAAUUUUGAUAGCUCUGAUUUAUCUUCGGAUCGAACUUCAGUUAUUGCCAAUACAGCAGCAGUUUUCUUGUGUACAACAGUACCAAGUCUAGCUUUUCCUUUAAUGAUAGCAUAAGGAACUCCCAUCUUUCGACAAAGAGCUGGAAGAAAUAUAACCAACUCUAUAGGAUCGACAUCAUUGGGUAUUAAGACUAGAGAAGCUUUCUUAUUCUCAACCAAACCAACGACAUGAUUGAGUCCAUACUUUACUGUGUAUGGCUUCUUACUGACAUCCUCCUUGUUGCCAUUUUUAAUAGCUGUAGCUUCCUUGAGAAGACGCUCUUUCUUUUCACCUUUACUUUCAGGACGGU
B3: GS3477 (nucleic acid)
sense: CCUCUCGCCAUUAAAUACUCAUAAAAUAUCCGCACGUACAGUUCUCUUCACUUCGGUACCUGCUAAAUACAGAGAUGAAUCUAAAUUACGUCAGAUAUUUGGCUCAUGCGUGAAAAAGGUUUGGAUAACAAAAGACAGUUCAGAGGUUGACGACCUUGUAUCUGAGCGCGACGAUCUCCUACUAAGAUUAGAAUCAUCUGAAGUUAAGCUUAUUAAAAUUGCAAAUACAGAGAGACUCAAGAUUAACAAGAAAAAAGCUGGAGAUAAUAACUCAUCAUCUGAAGUCGCAGCUCCUGUCCCAGCAUCUCUAGUUGACUACUGGGUUCCAGAAAAUAAGCGUCCGACUCAUAAGCUUGGCUUAUUUGGGCUAGUUGGACAGAAAGUUGAUACGAUUAAAU
antisense: AUUUAAUCGUAUCAACUUUCUGUCCAACUAGCCCAAAUAAGCCAAGCUUAUGAGUCGGACGCUUAUUUUCUGGAACCCAGUAGUCAACUAGAGAUGCUGGGACAGGAGCUGCGACUUCAGAUGAUGAGUUAUUAUCUCCAGCUUUUUUCUUGUUAAUCUUGAGUCUCUCUGUAUUUGCAAUUUUAAUAAGCUUAACUUCAGAUGAUUCUAAUCUUAGUAGGAGAUCGUCGCGCUCAGAUACAAGGUCGUCAACCUCUGAACUGUCUUUUGUUAUCCAAACCUUUUUCACGCAUGAGCCAAAUAUCUGACGUAAUUUAGAUUCAUCUCUGUAUUUAGCAGGUACCGAAGUGAAGAGAACUGUACGUGCGGAUAUUUUAUGAGUAUUUAAUGGCGAGAGG
B4: GS3472 (nucleic acid)
sense: UUAUUUGUGGCGACCUACCGAAAAUAAUCGAAGAUUCGCAAUGAGUGAUGAGUUAGCACAGGACGAUGAAGGUUUUGAAAUAUCCGACUUUGGAGUUGAAGACGAUGAAAUAGAGUCUACUAUAGGCCAAAAAGAAGAUAGAGAUCAAAGGCCAGAAGAGACGAGGUACAAUCCUGCGCCGAAAAAUUCCGGACGAAAGACUGUAAAAAAUACAACACGUGAGAGCUUAGAAAGAGAAACGAUAUUUACUGUUGGUGAAGACGGGGACAAAUGGUCAAAUAAUGAUAGUGACGAGGAGCAUGUUAAUCUCGUUAGUGGGUCAAACAAGCCUUCUUAGAUUUACGACAAUUUUUUU
antisense: AAAAAAAUUGUCGUAAAUCUAAGAAGGCUUGUUUGACCCACUAACGAGAUUAACAUGCUCCUCGUCACUAUCAUUAUUUGACCAUUUGUCCCCGUCUUCACCAACAGUAAAUAUCGUUUCUCUUUCUAAGCUCUCACGUGUUGUAUUUUUUACAGUCUUUCGUCCGGAAUUUUUCGGCGCAGGAUUGUACCUCGUCUCUUCUGGCCUUUGAUCUCUAUCUUCUUUUUGGCCUAUAGUAGACUCUAUUUCAUCGUCUUCAACUCCAAAGUCGGAUAUUUCAAAACCUUCAUCGUCCUGUGCUAACUCAUCACUCAUUGCGAAUCUUCGAUUAUUUUCGGUAGGUCGCCACAAAUAA
B5: GS3474 (nucleic acid)
sense: UAAGCAAUUUGAUGAUGAUCAUUAUGGUCUGGAGAAAGUCAAGAAAAGACUCCUUGAAUAUUUAGCGGUUCUCAAACUAAAGCAAUCAAUAAAUCAAGACAUUGACAUCAAGAUUAAGAAGGCAUCUGAAGAAAGAGCACAUGAAAAACUAGAAAUCUUAAAAAGUCAGAGAAUGGUUGAUAAAUCGCCUAUCUUGCUACUCGUUGGUCCUCCAGGUGUAGGUAAAACAAGCCUCGCAAAAUCUGUUGCAACAGCACUUGGUCGUAAAUUUCAUCGAAUUUCUCUUGGUGGUGUUCGGGAUGAGGCUGAAAUUAGGGGACAUCGUCGUACUUACGUUGCAGCUAUGCCAGGCCUCAUAAUUCAAGGGCUUAAGAAAGUUGGAGUGUGCAAUCCCGUUUUUCUUUUAGAUGAAAUUGAUAAAAUUGGGAGUUCUAAUUUCCAAGGUGAUCCUAGCGCUGCAAUGCUCGAAGUCCUCGAUCCAGAGCAGAAUCACAGUUUUACAGACCACUACGUCAAUAUUCCAGUAGACCUUAGCAAAGUUCUGUUUAUCGCUACUGCAAAUAGUCUGGAUACUAUUUCACCACCACUCUUAGACAGA
antisense: AAUGACAUGGAUUAUGUUGAACAUCAUUUUGGUCCUGCAGGCUUAAAUCGACAGGACAUUGUCCAUACAUACAGAACUCUUAAUGCAAAGAUUAUUAAAGCUGACCUCCUUCGUUAUUUGAUUAUGUAUGUGGAAGGAGGUCUAUACGCUGACAUUGAUGUCGAAGCUUUACGUCCAAUUGAACGUUUUAUUCCAGAGCGAUGGAACGAGAAAGACAUUGAUAUGAUUGUAGGGGUCGAGAUUGAUAUGCCGCAUUAUUCCGAUCACCCUAUUCUUGGUCCUAAAUCUAAAUCAUUUUGCCAAUGGACAUUUAUGUGCAAGCCACGUCUACCGGUGAUGAUGCAAUUAAUUGAUAAUAUUAUCGUCUGGCUCAAUCAGCUUUCCCGA
B6: GS3467 (nucleic acid)
sense: CCCAGCUUCAUUAGAGUGGUCAAAGAAACCAUUGUAGGUGUGAAUAGGAGGCUGAACUAGAGAUAAGAUGGUAUUAUGCAGAAUAUGACAAGUAGGAUUGCAUUGCUUAUCUUUAAUAAUCUCUCUCUUAAUUGUUAUCUUAGAAGCAAAGUUAGUUUCAUCAUCGCUUAAUUUUAAAUUAAUAAGUGAAACUUUGCUUCCAUAAGGUGAGCUACAAGGUGAUGGCUGAAUUAAAUCUUCAACUUUUUUAUUAUCAGUCCUUAUUUCUAGGUCAUAUGACCUAGAAUCUUCUAUAAAUUUUCUAAGCUUAUUUGAAGAAUCCUUAGUAGGUGUUUUUGCAAUGAAACGAUUAUUUUCUUCAGGUAAGAUUGUAGCGACGCUAACCGAUGACUCAGU
antisense: ACUGAGUCAUCGGUUAGCGUCGCUACAAUCUUACCUGAAGAAAAUAAUCGUUUCAUUGCAAAAACACCUACUAAGGAUUCUUCAAAUAAGCUUAGAAAAUUUAUAGAAGAUUCUAGGUCAUAUGACCUAGAAAUAAGGACUGAUAAUAAAAAAGUUGAAGAUUUAAUUCAGCCAUCACCUUGUAGCUCACCUUAUGGAAGCAAAGUUUCACUUAUUAAUUUAAAAUUAAGCGAUGAUGAAACUAACUUUGCUUCUAAGAUAACAAUUAAGAGAGAGAUUAUUAAAGAUAAGCAAUGCAAUCCUACUUGUCAUAUUCUGCAUAAUACCAUCUUAUCUCUAGUUCAGCCUCCUAUUCACACCUACAAUGGUUUCUUUGACCACUCUAAUGAAGCUGGG
B7: GS3523 (nucleic acid)
sense: UAACGAGAGAGAAUACACGGUAAAGACAGUAGUAUGGCAUAUGAUGCAAAAUGUAGAAAAGAUUGUAAUUGAGUUGGCAGUAAGUUCAUUCACGAAAAAUGAAUUAUUUUCCACACCAUAUCCGGGCUGAGGAAGGAAGACAUUUGUUUUCAAGUCAAGUUAAUGAAAAAACCAAAAAUAAAACUCAAACACACAGUGAGUAAUUUUUAUUAAGGUGGUCCAAUAAUAAUUUUUUCUGACAUGUACUCCUUGUAGUUUUGAGAUGAAAAUAGAGAUAAUAUUGAGUCUGUCGUUAUCCGAAACAGUUUAUGUUAGAGGUUGAUAAAUGACGAUACAAAAUGUAUAUAUUAGGAAAUCAAUUUACCGUGACCAAUGAGAAAAGAGGAGGUCUAAUU
antisense: AAUUAGACCUCCUCUUUUCUCAUUGGUCACGGUAAAUUGAUUUCCUAAUAUAUACAUUUUGUAUCGUCAUUUAUCAACCUCUAACAUAAACUGUUUCGGAUAACGACAGACUCAAUAUUAUCUCUAUUUUCAUCUCAAAACUACAAGGAGUACAUGUCAGAAAAAAUUAUUAUUGGACCACCUUAAUAAAAAUUACUCACUGUGUGUUUGAGUUUUAUUUUUGGUUUUUUCAUUAACUUGACUUGAAAACAAAUGUCUUCCUUCCUCAGCCCGGAUAUGGUGUGGAAAAUAAUUCAUUUUUCGUGAAUGAACUUACUGCCAACUCAAUUACAAUCUUUUCUACAUUUUGCAUCAUAUGCCAUACUACUGUCUUUACCGUGUAUUCUCUCUCGUUA

What follows are molecules tested on E. necator (assay: Leaf disc assay, dry inoculum (settling tower), decrease in disease severity / hyphal growth (Example 2)). Settings: decrease in disease severity (hyphal growth) relative to untreated control; time point 1 (untreated control hyphal growth ≥50%); value ± SE.

B1 and B2 are within error of each other in “% decrease =/− SE TP1” value: 21 ± 7% for the first, 29 ± 4% for the second.

B3 and B4 are the same in “% decrease =/− SE TP1” value: 28 ± 4% for the first, 28 ± 5% for the second.

B5 and B6 are within error of each other in “% decrease =/− SE TP1” value: 17 ± 5% for the first, 25 ± 4% for the second.

In the case of B7, the “% decrease =/− SE TP1” value is reported as 8 ± 11%.

Same assay, conditions: decrease in disease severity (hyphal growth) relative to untreated control; time point 2; value ± SE

B1 and B2 are within error of each other in “% decrease =/− SE TP2” value: 19 ± 11% for the first, 13 ± 9% for the second.

Going from B3 to B4, the “% decrease =/− SE TP2” value rises from 7 ± 8% to 22 ± 6%.

B5 and B6 are within error of each other in “% decrease =/− SE TP2” value: 9 ± 8% for the first, 13 ± 7% for the second.

For B7, the “% decrease =/− SE TP2” value was 12 ± 10%.
